Biological target: the molecule itself
Assay: SEC

B1: His6-eVP40 (Ebola virus matrix protein VP40) (natural protein)
chain: MRRVILPTAPPEYMEAIYPVRSNSTIARGGNSNTGFLTPESVNGDTPSNPLRPIADDTIDHASHTPGSVSSAFILEAMVNVISGPKVLMKQIPIWLPLGVADQKTYSFDSTTAAIMLASYTITHFGKATNPLVRVNRLGPGIPDHPLRLLRIGNQAFLQEFVLPPVQLPQYFTFDLTALKLITQPLPAATWTDDTPTGSNGALRPGISFHPKLRPILLPNKSGKKGNSADLTSPEKIQAIMTSLQDFKIVPIDPTKNIMGIEVPETLVHKLTGKKVTSKNGQPIIPVLLPKYIGLDPVAPGDLTMVITQDCDTCHSPASLPAVIEK
  stoichiometry N: 2

Reference: doi:10.1101/2021.06.08.447555 (bioRxiv, 2021)
